Measured values taken from US20180185504A1 (Regeneron, published 2018).

T1: human PRLR on cells (endogenous on T47D, T47D#11, MCF7); introduced in HEK293/hPRLR/STAT5-Luc, 293/hPRLR, … (human, UniProt P16471 25-622)
T1 construct: no tag is stated for these lines; also called prolactin receptor
T1 sequence: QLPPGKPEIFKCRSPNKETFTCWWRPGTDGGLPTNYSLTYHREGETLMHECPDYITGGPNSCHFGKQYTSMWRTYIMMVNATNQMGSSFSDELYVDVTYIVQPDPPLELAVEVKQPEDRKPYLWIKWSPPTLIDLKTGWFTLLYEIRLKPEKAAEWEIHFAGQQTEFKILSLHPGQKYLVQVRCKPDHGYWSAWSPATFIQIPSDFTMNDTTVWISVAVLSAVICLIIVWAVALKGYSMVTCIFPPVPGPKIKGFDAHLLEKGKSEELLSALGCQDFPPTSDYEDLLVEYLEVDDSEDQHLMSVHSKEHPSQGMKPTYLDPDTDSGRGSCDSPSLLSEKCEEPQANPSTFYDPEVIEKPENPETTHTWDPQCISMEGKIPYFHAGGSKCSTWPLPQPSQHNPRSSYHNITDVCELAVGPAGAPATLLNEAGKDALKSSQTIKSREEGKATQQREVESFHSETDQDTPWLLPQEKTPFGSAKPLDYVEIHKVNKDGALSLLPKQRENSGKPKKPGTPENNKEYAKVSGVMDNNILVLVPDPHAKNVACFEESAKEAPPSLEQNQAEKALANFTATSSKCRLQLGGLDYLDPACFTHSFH

T2: human PRLR construct with an HA tag on HEK293/hPRLR cells (human, UniProt P16471 25-622)
T2 sequence: T1 sequence

T3: mouse PRLR construct with an HA tag on HEK293/mPRLR cells (mouse, UniProt Q08501 20-608)
T3 construct: whole, on cells; stably transfected into HEK293
T3 sequence (looked up): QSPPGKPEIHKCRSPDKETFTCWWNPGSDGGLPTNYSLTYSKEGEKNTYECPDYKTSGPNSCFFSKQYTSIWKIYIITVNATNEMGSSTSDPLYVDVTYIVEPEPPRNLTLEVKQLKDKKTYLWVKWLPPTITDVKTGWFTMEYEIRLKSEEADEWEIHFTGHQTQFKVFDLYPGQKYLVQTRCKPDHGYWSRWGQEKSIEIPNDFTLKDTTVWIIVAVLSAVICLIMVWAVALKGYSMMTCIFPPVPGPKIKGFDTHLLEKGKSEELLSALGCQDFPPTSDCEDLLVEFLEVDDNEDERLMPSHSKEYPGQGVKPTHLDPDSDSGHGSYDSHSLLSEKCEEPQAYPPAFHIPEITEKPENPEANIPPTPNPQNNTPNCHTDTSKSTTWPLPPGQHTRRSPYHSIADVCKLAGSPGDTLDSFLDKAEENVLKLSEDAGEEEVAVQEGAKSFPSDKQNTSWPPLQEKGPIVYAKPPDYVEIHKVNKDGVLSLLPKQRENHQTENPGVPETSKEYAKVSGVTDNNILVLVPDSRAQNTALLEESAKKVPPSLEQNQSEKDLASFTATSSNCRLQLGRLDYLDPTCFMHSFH

T4: monkey macaca fascicularis PRLR construct with an HA tag on HEK293/mfPRLR cells (macaca fascicularis, UniProt A0A2K5WXK1 25-619)
T4 construct: stably transfected into HEK293
T4 sequence: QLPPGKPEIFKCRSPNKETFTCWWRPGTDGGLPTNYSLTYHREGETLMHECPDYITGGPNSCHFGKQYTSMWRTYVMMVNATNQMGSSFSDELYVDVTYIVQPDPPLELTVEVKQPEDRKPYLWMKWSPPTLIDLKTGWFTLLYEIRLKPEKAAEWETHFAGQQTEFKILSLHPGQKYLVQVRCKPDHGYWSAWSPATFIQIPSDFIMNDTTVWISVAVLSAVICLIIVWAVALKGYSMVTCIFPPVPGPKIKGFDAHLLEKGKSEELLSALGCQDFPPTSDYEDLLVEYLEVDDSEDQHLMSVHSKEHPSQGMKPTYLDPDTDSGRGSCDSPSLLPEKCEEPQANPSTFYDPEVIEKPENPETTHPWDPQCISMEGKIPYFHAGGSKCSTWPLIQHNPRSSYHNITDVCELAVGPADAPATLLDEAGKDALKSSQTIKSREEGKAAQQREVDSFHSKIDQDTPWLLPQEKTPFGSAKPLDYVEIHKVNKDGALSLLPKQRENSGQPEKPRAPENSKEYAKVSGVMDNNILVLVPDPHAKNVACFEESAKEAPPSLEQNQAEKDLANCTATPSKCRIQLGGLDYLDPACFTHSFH

B1: H1H6959N2 (antibody, human IgG1, V domains shown)
VH: EVQLVESGGGLVQPGRSLRLSCAASGFTFDDYAMHWVRQAPGKGLEWVSGISWHSGIIGYADSVKGRFTISRDNAKNSLYLQMNSLRTEDAALYYCAKIGSYFYFDSWGQGTLVTVSS
VL: EIVLTQSPGTLSLSPGERATLSCRASQSVSSNYLAWYQQKPGQAPRLLIYGASSRATGIPDRFSGSGSGTDFTLTISRLEPEDFAVYYCQQFGSSGYTFGQGTNLEIK
notes: also called H2M6959N2
B2: H1H6804P (antibody, human IgG1, V domains shown)
VH: QVTLKESGPVLVKPTQTLSLTCTVSGFSLSDAGMGVSWIRQPPGKALEWLAHIFSNDGKSYSTSLKSRLTISKDTSKRQVVLTMTNMDPVDTATYYCARIRTGTYSLYLDYWGQGTLVTVSS
VL: DIQMTQSPSSLSASVGDRVTITCRASQSINSYLNWYQQKPGKAPKLLLYFASSLQSGVPSRFSGSGSGTDFTLTISSLQPEDFASYYCQESYSTPWTFGQGTKVEIK
notes: human IgG1 Fc (H1H)
B3: H1H6960N (antibody, human IgG1, V domains shown)
VH: EVQLVESGGGLVKPGGSLRLSCAASGITFSSYSMNWVRQAPGKGLEWVSSISTRSSLIHYADSVKGRFTISRDNAKNSLYLQMNSLRDEDTAVYYCARWDAAAAFDYWGQGTLVIVSS
VL: DIQLTQSPSFLSASVGDRVTITCWASQGISSYLAWYQQKPGKAPKLLIYVASTLQSGVPSRFSGSGSGTEFTLTISSLQPEDFATYFCQQLNSYPLTFGGGTKVEIK
notes: also called H2M6960N
B4: H1H6790P (antibody, human IgG1, V domains shown)
VH: EVQLVESGGGLVQPGGSLRLSCAASGFTFSSYAMTWVRQAPGKGLEWVSAITGSVGNTYYADSVKGRFTISRDNSKNTLYLQMNSLGAEDTAEYYCAKGAGMTTNWYLDLWGRGTLVTVSS
VL: DIVMTQSPDSLAVSLGARATINCKSSQSVLYSSNNQNYLTWYQQKPGQPPKLLIKWASTRESGVPDRFSGSGSGTDFTLTISSLQAEDVAVYYCQQYASSPYTFGQGTKLEIK
notes: human IgG1 Fc (H1H)
B5: H1H6797P (antibody, human IgG1, V domains shown)
VH: EVQLVESGGGLVQPGGSLRLSCIVSGFTFSGSWMSWVRQLPGKGLEWVANIKEDGSDSYYVDSVEGRFTISRDNAKSSLYLQMNSLRVDDTAVYFCARARTVPLHYWGQGTLVTVSS
VL: DIQMTQSPSTLSASVGDRVTITCRASQSINIWLAWYQQKPGKAPKLLIYRASYLESGVPSSFAGGGSGTEFTLTISSLQPDDFGTYYCQHYNSYPFTFGQGTKLEIK
notes: human IgG1 Fc (H1H)
B6: H1H6966N (antibody, human IgG1, V domains shown)
VH: QVQLVQSGAEVQKPGASVKVSCKVSGYTLTALSIHWVRQAPGKGLEWMGNFDPGDGETIHAQKFQGRVTMTGDTSTDTAYMELSSLRSEDTAVYYCVGVTFDYWGQGTLVTVSS
VL: EIVMTQSPATLSVSPGERATLSCRASQSVASNLAWYQQKPGQAPRLLLYGASTRATGIPARFSGSGSGTEFTLTISSLQSEDFALYYCQHYNNWPLTFGGGTKVEIK
notes: also called H2M6966N

target: T1, human PRLR on cells (endogenous on …); assay: FACS on T47D cells

FACS Cell Binding (Fold Above Background) [fold]	Binder
9	B1
34	B2
33	B3
34	B4
38	B5
31	B6

target: T1, human PRLR on cells (endogenous on …); assay: cell-based or functional assay

% Internalization relative to Control I (T47D cells, imaging) [%]	Binder
15.3	B1
139	B2
120	B3
147	B4
145	B5
137	B6

target: T2, human PRLR construct with an HA tag on …; assay: FACS on HEK293/hPRLR cells

FACS Cell Binding (Fold Above Background) [fold]	Binder
6	B1
1	B2
29	B3
37	B4
1	B5
29	B6

target: T3, mouse PRLR construct with an HA tag on …; assay: FACS on HEK293/mPRLR cells

FACS Cell Binding (Fold Above Background) [fold]	Binder
2	B1
1	B2
1	B3
1	B4
2	B5
1	B6

target: T4, monkey macaca fascicularis PRLR …; assay: FACS on HEK293/mfPRLR cells

FACS Cell Binding (Fold Above Background) [fold]	Binder
11	B1
29	B2
23	B3
24	B4
25	B5
18	B6

target: T1, human PRLR on cells (endogenous on …); assay: imaging of alexa488 intensity on T47D cells
Method in brief: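 T47D cells labelled on ice with alexa488 anti-hFc Fab secondary for 30 min, then held 1 h at 37 °C in PBS+2% FBS or at 4 °C. After fixation and DRAQ5 staining, whole-cell (binding) and intracellular-vesicle (internalization) alexa488 intensities at 37 °C quantified by imaging.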

% Total Binding relative to Control I [%]	Binder
2	B1
150	B2
89.7	B3
123	B4
151	B5
111	B6
